The source of these data is publication PMC8990011, “Bcl-xL acts as an inhibitor of IP3R channels, thereby antagonizing Ca^2+-driven apoptosis” (Cell Death and Differentiation, 2021).

Assay [1] concerns the target T1, 6xHis-Bcl-xL (human, UniProt Q07817-1 1-233, RED-tris-NTA dye on the His tag (Monolith His-Tag Labeling Kit) in MST).
T1 construct: full-length Bcl-xL cloned in pET45b in the 6xHis-encoding reading frame; also called wild-type 6xHis-Bcl-xL; full-length 6xHis-Bcl-xL; source: E. coli BL21, purified (NiNTA)
The assay can be described thus: MST; 6xHis-Bcl-xL proteins labelled with RED-tris-NTA kept constant at 50 nM; GST proteins titrated down from 15 µM to 5 nM; Monolith NT, 5% excitation power, medium MST power; triplicates. Conditions: both partners purified.

Assay [2] concerns the target T2, 6xHis-Bcl-xL^K87D (human, UniProt Q07817-1 1-233, K87D, RED-tris-NTA dye on the His tag (Monolith His-Tag Labeling Kit) in MST).
T2 construct: full-length Bcl-xL with K87D, made from pET45b-Bcl-xL by site-directed mutagenesis; also called full-length Bcl-xL^K87D; purified Bcl-xL^K87D; source: E. coli BL21, purified (NiNTA)
Described as above. Conditions: both partners purified.

T1 sequence (Q07817 whole entry): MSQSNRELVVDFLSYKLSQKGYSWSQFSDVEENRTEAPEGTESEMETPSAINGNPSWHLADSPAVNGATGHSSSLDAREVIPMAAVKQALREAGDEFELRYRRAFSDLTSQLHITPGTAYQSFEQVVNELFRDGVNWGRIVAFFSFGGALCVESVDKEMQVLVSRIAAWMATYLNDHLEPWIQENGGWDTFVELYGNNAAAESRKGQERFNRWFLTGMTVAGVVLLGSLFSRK
T2 sequence (Q07817 whole entry K87D): as the sequence (Q07817 whole entry) above, with K87D counted along it

B1: GST-mIP3R1-Fragment 3 (domain or fragment)
chain: SIHGVGELMTQVVLRGGGFLPMTPMAAAPEGNVKQAEPEKEDIMVMDTKLKIIEILQFILNVRLDYRISCLLCIFKREFDESNSQSSETSSGNSSQEGPSNVPGALDFEHIEEQAEGIFGGSEENTPLDLDDHGGRTFLRVLLHLTMHDYPPLVSGALQLLFRHFSQRQEVLQAFKQVQLLVTSQDVDNYKQIKQDLDQLRSIVEKSELWVYKGQGPDEPMDGASGENEHKKTEEGTSKPLKHESTSSYNYRVVKEILIRLSKLCVQESASVRKSRKQQQRLLRNMGAHAVVLELLQIPYEKAEDTKMQEIMRLAHEFLQNFCAGNQQNQALLHKHINLFLNPGILEAVTMQHIFMNNFQLCSEINERVVQHFVHCIETHGRNVQYIKFLQTIVKAEGKFIKKCQDMVMAELVNSGEDVLVFYNDRASFQTLIQMMRSERDRMDENSPLMYHIHLVELLAVCTEGKNVYTEIKCNSLLPLDDIVRVVTHEDCIPEVKIAYINFLNHCYVDTEVEMKEIYTSNHMWKLFENFLVDICRACNNTSDRKHADSILEKYVTEIVMSIVTTFFSSPFSDQSTTLQTRQPVFVQLLQGVFRVYHCNWLMPSQKASVESCIRVLSDVAKSRAIAIPVDLDSQVNNLFLKSHNIVQKTALNWRLSAR
Regarding B1, the Kd in assay [1] is ~495 nM; in assay [2] it was ~990 nM.

B2: GST-mIP3R1-LBD (domain or fragment)
chain: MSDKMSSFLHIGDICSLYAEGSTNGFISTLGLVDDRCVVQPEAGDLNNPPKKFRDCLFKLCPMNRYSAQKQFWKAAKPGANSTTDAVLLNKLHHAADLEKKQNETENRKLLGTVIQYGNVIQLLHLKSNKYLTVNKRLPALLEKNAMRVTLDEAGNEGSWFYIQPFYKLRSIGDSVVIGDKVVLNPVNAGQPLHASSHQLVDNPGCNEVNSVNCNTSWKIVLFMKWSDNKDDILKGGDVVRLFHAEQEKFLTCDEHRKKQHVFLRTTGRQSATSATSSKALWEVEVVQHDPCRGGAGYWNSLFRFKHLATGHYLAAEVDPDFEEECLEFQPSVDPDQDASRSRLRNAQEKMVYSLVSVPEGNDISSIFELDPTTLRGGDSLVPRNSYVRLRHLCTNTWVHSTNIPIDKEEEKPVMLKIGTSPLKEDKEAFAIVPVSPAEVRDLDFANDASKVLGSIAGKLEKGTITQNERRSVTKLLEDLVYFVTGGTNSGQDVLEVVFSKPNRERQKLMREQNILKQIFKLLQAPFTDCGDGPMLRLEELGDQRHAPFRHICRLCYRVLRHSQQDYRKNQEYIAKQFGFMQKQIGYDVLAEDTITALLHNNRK
With B2, the values for the Kd in assay [1] and in assay [2] were ~701 nM and ~1170 nM, respectively.
